This assay addresses SARS-CoV-2 (Wuhan-Hu-1) wild-type (WT) spike protein carried on pseudotyped virus or on live wild-type virus (SARS-CoV-2 (Wuhan-Hu-1)), P0DTC2. The assay can be described thus: cell-based or functional assay.

The source of these data is patent publication US20240262893A1.

B1: R2D9 CDR3-knob (peptide)
peptide: ITHKTCPNGYNWFDRCCSWDGTCGDGCCSNRAWPSGNGRADSSIGETYGYEF
modifications: not checked
Molecule B1 returned a pseudovirus neutralization, ng/mL (quantity not given) of 24.2 ng/mL.
